Earlier results, collected in paper PMC4086743 (Amino acids, 2012).

Tests used:
[1] = tested on: trypsin
[2] = tested on: chymotrypsin
[3] = tested on: MMP7

B1: HD5: human Paneth cell α-defensin HD5 (peptide, UniProt Q01523 20-94, looked up)
Defensin alpha 5: ESLQERADEATTQKQSGEDNQDLAISFAGNGLSALRTSGSQARATCYCRTGRCATRESLSGVCEISGRLYRLCCR
modifications: Defensin-5
Question: Which results are given for B1?
Answer: sensitivity to trypsin [1]: insensitive; sensitivity to chymotrypsin [2]: insensitive

B2: proCrp4: full-length precursor of Crp4 with electronegative proregion, recombinant (protein, UniProt P28311 20-92, looked up)
pro-form: DPIQNTDEETKTEEQPGEEDQAVSISFGGQEGSALHEKSLRGLLCYCRKGHCKRGERVRGTCGIRFLYCCPRR
modifications: pro-form
Question: For B2, which “resistance to proteolysis by MMP7” value [3] is on record?
Answer: completely resistant
